Key:
human CD64 (FcγRI) = human CD64 (FcγRI) (UniProt P12314); assay: ELISA; settings: highest concentration point (about 500 nM); parent: est. 3.4; read off a plot
murine CD64 (FcγRI) = murine CD64 (FcγRI) (UniProt P26151); assay: ELISA; settings: highest concentration point (about 1e4 nM); parent: est. 1.2; read off a plot
MSLN = assay: BLI (Blitz); settings: 800nM trace, read at end of association (about 120 s); parent: est. 0.63; read off a plot

Chain of UniProt P12314 (P12314 16-374): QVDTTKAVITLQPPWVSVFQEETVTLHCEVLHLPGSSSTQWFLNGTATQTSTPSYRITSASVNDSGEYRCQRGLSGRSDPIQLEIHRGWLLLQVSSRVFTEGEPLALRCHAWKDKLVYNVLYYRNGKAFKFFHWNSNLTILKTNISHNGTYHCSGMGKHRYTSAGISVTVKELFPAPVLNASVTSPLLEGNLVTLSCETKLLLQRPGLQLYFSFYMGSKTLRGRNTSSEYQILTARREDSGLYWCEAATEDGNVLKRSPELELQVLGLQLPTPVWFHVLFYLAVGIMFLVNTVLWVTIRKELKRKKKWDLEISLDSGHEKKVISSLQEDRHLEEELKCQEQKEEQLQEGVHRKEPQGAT
Chain of UniProt P26151 (P26151 25-404): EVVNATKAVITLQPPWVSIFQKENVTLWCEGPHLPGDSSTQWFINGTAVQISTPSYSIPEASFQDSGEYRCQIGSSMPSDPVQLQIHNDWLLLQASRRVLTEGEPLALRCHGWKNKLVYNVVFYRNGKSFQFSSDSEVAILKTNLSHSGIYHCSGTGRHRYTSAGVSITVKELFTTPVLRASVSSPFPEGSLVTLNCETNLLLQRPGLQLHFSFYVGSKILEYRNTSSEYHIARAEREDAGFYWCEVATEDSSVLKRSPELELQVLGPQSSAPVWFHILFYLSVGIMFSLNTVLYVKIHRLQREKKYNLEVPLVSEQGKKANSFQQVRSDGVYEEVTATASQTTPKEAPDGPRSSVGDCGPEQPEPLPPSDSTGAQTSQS

response (human CD64 (FcγRI)) [OD450] | response (murine CD64 (FcγRI)) [OD450] | response (MSLN) [nm] | Substance
0.22 | 0.25 | 0.78 | 2A10-VH-FcWT (from UniProt P01857) L234A; L235A; P329G
0.27 | 0.3 | 0.78 | 2A10-VH-FcWT (from UniProt P01857) G236R; L328R

Reference: article PMC12828721
